US20260098080A1, “A MODIFIED PROTEIN SCAFFOLD AND USE THEREOF” (EVOLVERITAS BIOTECHNOLÓGIAI KORLÁTOLT FELELOSSÉGU TÁRSASÁG, priority 2022, published 2026)
Where no end group is shown, it is not given here.

Experiments:
[1] = target: T1, human MASP-2 (in normal human serum) (human, UniProt O00187 16-686); assay: cell-based or functional assay
[2] = target: rat MASP-2 (in rat serum) (rat, UniProt Q9JJS8 20-685); assay: cell-based or functional assay
[3] = target: T2, human MASP-2cf CCP1-CCP2-SP (human, UniProt O00187 298-686, limits assumed); assay: SPR, target immobilised
T2 construct: domain: CCP1-CCP2-SP; also called human MASP-2 catalytic fragment

[4] = target: T3, rat MASP-2cf CCP1-CCP2-SP (rat, UniProt Q9JJS8 298-685); assay: SPR, target immobilised
T3 construct: range 298-685; Mw 42309 Da; also called rat MASP-2 catalytic fragment

[5] = target: T2, human MASP-2cf CCP1-CCP2-SP; assay: enzyme inhibition, tight-binding fit
[6] = target: T3, rat MASP-2cf CCP1-CCP2-SP; assay: enzyme inhibition, tight-binding fit
[7] = target: T1, human MASP-2 (in normal human serum); assay: cell-based or functional assay; remark: listed apart in the source

T1 sequence (O00187 16-686 limits assumed): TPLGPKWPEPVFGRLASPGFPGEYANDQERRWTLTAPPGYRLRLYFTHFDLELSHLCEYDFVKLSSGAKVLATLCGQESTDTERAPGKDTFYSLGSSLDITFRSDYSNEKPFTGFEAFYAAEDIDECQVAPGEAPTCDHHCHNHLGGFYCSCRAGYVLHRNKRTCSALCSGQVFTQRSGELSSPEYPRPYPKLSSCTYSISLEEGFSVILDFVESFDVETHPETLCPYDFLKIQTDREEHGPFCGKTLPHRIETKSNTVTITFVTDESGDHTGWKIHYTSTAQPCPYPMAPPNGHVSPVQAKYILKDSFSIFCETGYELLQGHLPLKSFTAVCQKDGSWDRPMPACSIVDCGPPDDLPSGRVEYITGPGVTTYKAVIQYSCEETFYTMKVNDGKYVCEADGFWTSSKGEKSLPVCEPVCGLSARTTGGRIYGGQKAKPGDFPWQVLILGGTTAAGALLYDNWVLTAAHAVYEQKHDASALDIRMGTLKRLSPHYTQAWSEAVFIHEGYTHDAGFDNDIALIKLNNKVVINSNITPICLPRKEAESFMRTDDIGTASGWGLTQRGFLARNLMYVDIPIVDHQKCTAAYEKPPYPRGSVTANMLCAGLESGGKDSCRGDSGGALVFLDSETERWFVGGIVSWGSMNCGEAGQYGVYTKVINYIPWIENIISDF
T2 sequence (O00187 298-686 limits assumed): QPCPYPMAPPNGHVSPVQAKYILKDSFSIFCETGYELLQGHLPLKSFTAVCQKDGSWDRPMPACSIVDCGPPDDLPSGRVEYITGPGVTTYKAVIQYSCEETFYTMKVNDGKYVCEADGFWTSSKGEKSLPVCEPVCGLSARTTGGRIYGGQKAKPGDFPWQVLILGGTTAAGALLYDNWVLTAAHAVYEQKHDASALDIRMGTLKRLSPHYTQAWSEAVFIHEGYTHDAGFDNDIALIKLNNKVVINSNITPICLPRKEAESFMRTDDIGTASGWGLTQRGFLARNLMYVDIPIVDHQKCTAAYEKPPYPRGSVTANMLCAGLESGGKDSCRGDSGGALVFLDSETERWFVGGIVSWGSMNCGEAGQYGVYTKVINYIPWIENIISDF
rat MASP-2 (in rat serum), sequence (Q9JJS8 20-685 limits assumed): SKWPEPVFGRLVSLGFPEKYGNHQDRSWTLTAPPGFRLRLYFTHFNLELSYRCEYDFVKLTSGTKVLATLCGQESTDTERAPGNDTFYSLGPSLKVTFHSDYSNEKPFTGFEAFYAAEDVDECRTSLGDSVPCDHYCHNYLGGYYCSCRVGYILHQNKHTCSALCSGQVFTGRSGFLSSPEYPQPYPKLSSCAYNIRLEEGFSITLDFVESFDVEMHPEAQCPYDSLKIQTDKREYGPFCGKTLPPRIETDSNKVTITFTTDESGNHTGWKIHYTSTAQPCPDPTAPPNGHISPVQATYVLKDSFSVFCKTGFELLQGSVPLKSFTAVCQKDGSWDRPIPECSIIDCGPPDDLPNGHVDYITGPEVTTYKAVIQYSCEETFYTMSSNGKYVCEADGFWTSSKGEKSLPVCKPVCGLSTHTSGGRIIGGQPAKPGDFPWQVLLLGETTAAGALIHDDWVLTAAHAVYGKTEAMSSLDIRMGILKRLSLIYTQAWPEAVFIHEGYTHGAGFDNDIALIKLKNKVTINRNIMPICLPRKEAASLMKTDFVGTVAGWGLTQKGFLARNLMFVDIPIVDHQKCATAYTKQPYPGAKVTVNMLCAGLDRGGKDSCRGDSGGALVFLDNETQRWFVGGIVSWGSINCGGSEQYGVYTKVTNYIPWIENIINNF
T3 sequence (Q9JJS8 other isoform, or with tags, fused parts or gaps limits assumed, form in doubt): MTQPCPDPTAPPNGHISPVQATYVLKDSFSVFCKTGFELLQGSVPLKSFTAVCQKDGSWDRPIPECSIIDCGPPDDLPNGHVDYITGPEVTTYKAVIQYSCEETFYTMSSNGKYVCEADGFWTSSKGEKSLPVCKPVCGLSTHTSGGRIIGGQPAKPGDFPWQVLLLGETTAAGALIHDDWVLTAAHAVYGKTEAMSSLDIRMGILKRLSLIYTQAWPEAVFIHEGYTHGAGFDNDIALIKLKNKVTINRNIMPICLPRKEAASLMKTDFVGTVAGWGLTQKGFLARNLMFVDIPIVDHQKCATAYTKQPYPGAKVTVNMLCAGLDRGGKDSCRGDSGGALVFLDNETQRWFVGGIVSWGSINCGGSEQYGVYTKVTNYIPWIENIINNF

Binder | IC50, lectin pathway C4 deposition, human serum [1] | Relative potency, lectin pathway, human serum [1] | IC50, lectin pathway C4 deposition, rat serum [2] | Relative potency, lectin pathway, rat serum [2] | Kd [3] | Relative affinity [3] | koff [3] | kon [3] | Kd [4] | Relative affinity [4] | koff [4] | kon [4] | Ki [5] | Ki [6] | Relative potency (relative human lectin pathway inhibitory efficiency compared to EVO2) [7]
EVO22 (designed binder, not fully specified; cysteine pairing not given here, Modified TFPI-D2 Kunitz domain; made as m1) KPDFCFLENDPGPCRALKRRYFYNNQTKQCERFYYGGCLGNMNNFVTLEECKNICEDG | 4.1 nM | 33.4 fold vs EVO2 | 9.9 nM | 10.8 fold vs EVO2 | 0.137 nM | 13.1 fold vs EVO2 | 0.000314 s⁻¹ | 2.3e+06 M⁻¹ s⁻¹ | 0.229 nM | 15.9 fold vs EVO2 | 0.000256 s⁻¹ | 1.12e+06 M⁻¹ s⁻¹ | 0.15 nM | 0.31 nM | 
EVO21b (designed binder, not fully specified; cysteine pairing not given here) KPDFCFLEEDPGPCRALKRRYFYNNQTKQCERFGYGGCLGNMNNFVTLEECKNICEDG | 4.3 nM | 31.9 fold vs EVO2 | 7.2 nM | 14.7 fold vs EVO2 |  |  |  |  |  |  |  |  |  |  | 32.1 fold relative to EVO2
EVO211a (designed binder) KPDFCFLEEDPGWCRALKRRYFYNNQTKQCERFGYGGCFGNMNNFVTLEECKNICEDG | 9.1 nM | 15.2 fold vs EVO2 | 30.6 nM | 3.5 fold vs EVO2 |  |  |  |  |  |  |  |  |  |  | 13.5 fold relative to EVO2
EVO214a (designed binder) KPDFCFLEEDPGPCRALKLRYFYNNQTKQCERFGYGGCFGNMNNFVTLEECKNICEDG | 10.2 nM | 13.6 fold vs EVO2 | 20.3 nM | 5.2 fold vs EVO2 |  |  |  |  |  |  |  |  |  |  | 15.2 fold relative to EVO2
EVO22d (designed binder) KPDFCFLEEDPGPCRAAKRRYFYNNQTKQCERFYYGGCFGNMNNFVTLEECKNICEDG | 5.6 nM | 24.7 fold vs EVO2 | 10.4 nM | 10.2 fold vs EVO2 |  |  |  |  |  |  |  |  |  |  | 24.6 fold relative to EVO2
EVO222 (designed binder, not fully specified; cysteine pairing not given here, Modified TFPI-D2 Kunitz domain; made as m1) KPDFCFLENDPGLCRAAAVRYFYNNQTKQCERFYYGGCLGNMNNFVTLEECKNICEDG | 9.8 nM | 14.1 fold vs EVO2 | 24.2 nM | 8.9 fold vs EVO2 |  | 40 fold vs EVO2 | 4.26e-05 s⁻¹ | 954000 M⁻¹ s⁻¹ | 0.566 nM | 6.4 fold vs EVO2 | 0.000262 s⁻¹ | 463000 M⁻¹ s⁻¹ | 0.1 nM | 0.27 nM | 
EVO221 (designed binder, not fully specified; cysteine pairing not given here, Modified TFPI-D2 Kunitz domain; made as m1) KPDFCFLENDPGVCRAAAVRYFYNNQTKQCERFYYGGCLGNMNNFVTLEECKNICEDG | 12.7 nM | 10.9 fold vs EVO2 | 11 nM | 9.7 fold vs EVO2 | 0.127 nM | 14.1 fold vs EVO2 | 0.000131 s⁻¹ | 1.03e+06 M⁻¹ s⁻¹ | 0.17 nM | 21.4 fold vs EVO2 | 0.000113 s⁻¹ | 664000 M⁻¹ s⁻¹ | 0.19 nM | 0.1 nM | 10.8 fold relative to EVO2
EVO223 (designed binder, Modified TFPI-D2 Kunitz domain; made as m1) KPDFCFLENDPGPCRAAAVRYFYNNQTKQCERFYYGGCLGNMNNFVTLEECKNICEDG | 9.9 nM | 14 fold vs EVO2 | 12 nM | 8.9 fold vs EVO2 | 0.054 nM | 33.1 fold vs EVO2 | 4.77e-05 s⁻¹ | 882000 M⁻¹ s⁻¹ | 0.108 nM | 33.6 fold vs EVO2 | 7.53e-05 s⁻¹ | 696000 M⁻¹ s⁻¹ |  | 0.09 nM | 
EVO224 (designed binder, not fully specified; cysteine pairing not given here, Modified TFPI-D2 Kunitz domain; made as m1) KPDFCFLENDPGVCRALAVRYFYNNQTKQCERFYYGGCLGNMNNFVTLEECKNICEDG | 30.9 nM | 4.5 fold vs EVO2 | 29.6 nM | 3.6 fold vs EVO2 | 0.561 nM | 3.2 fold vs EVO2 | 0.000617 s⁻¹ | 1.1e+06 M⁻¹ s⁻¹ | 0.219 nM | 16.6 fold vs EVO2 | 0.000184 s⁻¹ | 839000 M⁻¹ s⁻¹ | 1.13 nM | 0.14 nM | 
EVO21a (designed binder, not fully specified; cysteine pairing not given here, Modified TFPI-D2 Kunitz domain; made as m1) KPDFCFLENDPGPCRAVKRRYFYNNQTKQCERFGYGGCLGNMNNFVTLEECKNICEDG | 21.4 nM | 6.5 fold vs EVO2 | 39.4 nM | 2.7 fold vs EVO2 | 0.723 nM | 2.5 fold vs EVO2 | 0.000839 s⁻¹ | 1.16e+06 M⁻¹ s⁻¹ | 2.02 nM | 1.8 fold vs EVO2 | 0.00104 s⁻¹ | 515000 M⁻¹ s⁻¹ |  |  | 6.4 fold relative to EVO2
EVO21c (designed binder, not fully specified; cysteine pairing not given here, Modified TFPI-D2 Kunitz domain; made as m1) KPDFCFLEEDPGPCRALKRRYFYNNQTKQCERFGYGGCFGNMNNFVTLEECKNICEDG | 6.2 nM | 22.4 fold vs EVO2 | 12.4 nM | 8.5 fold vs EVO2 |  |  |  |  |  |  |  |  | 0.065 nM | 0.007 nM | 22.3 fold relative to EVO2
EVO25 (designed binder, not fully specified; cysteine pairing not given here, Modified TFPI-D2 Kunitz domain; made as m1) KPDFCFLENDPGPCRALKRRYFYNNQTKQCERFYYGGCFGNMNNFETLEECKNICEDG | 5.6 nM | 24.5 fold vs EVO2 | 15 nM | 7.1 fold vs EVO2 | 0.203 nM | 8.8 fold vs EVO2 | 0.000438 s⁻¹ | 2.16e+06 M⁻¹ s⁻¹ | 0.787 nM | 4.6 fold vs EVO2 | 0.000826 s⁻¹ | 1.05e+06 M⁻¹ s⁻¹ |  | 0.9 nM | 
EVO2 (designed binder, not fully specified; ends and bridges not checked, Modified Kunitz domain TFPI-D2 of human TFPI-1; recombinant from E. coli, freed from a His6-S100A4 fusion by TEV protease; also called TFMI-2b) KPDFCFLEEDPGPCRAVKRRYFYNNQTKQCERFKYGGCLGNMNNFETLEECKNICEDG | 138 nM | 1 fold vs EVO2 | 106 nM | 1 fold vs EVO2 | 1.79 nM | 1 fold vs EVO2 | 0.0014 s⁻¹ | 809000 M⁻¹ s⁻¹ | 3.63 nM | 1 fold vs EVO2 | 0.00107 s⁻¹ | 310000 M⁻¹ s⁻¹ | 0.65 nM | 0.24 nM | 
